In EP3757216B1:

Columns and labels:
[1] = target: gamma-globulin preparation (The Chemo-Sero-Therapeutic Research Institute), a human antibody (human); assay: ELISA on immobilised human gamma-globulin, anti-6His detection; antibody binding activity after acid treatment (pH 3.0, 72 h, 30 C) divided by that without treatment
[2] = target: gamma-globulin preparation (The Chemo-Sero-Therapeutic Research Institute), a human antibody (human); assay: ELISA on immobilised human gamma-globulin, anti-6His detection; antibody binding activity after acid treatment (pH 3.0, 24 h, 30 C) divided by that without treatment

RESIDUAL ACTIVITY [%] [1] [%] | RESIDUAL ACTIVITY [%] [2] [%] | Binder
33.3 | – | FcγRIIa-m11-Del7 (receptor) MGQAAAPPKAVLKLEPPWTNVLQEDSVTLTCQDSVLWFHNGNLIPTQTQLTYRFKATSNDSGEYTCQTGQTSLSDPVHLTVLSEWLVLQPPRLEFQEGETIMLRCHSWKDKPLVKVTFFQNGKSQKFSHLDPTFSIPQANHSHSGDYHCTGNIGYTSFSSKPVTITVQGGHHHHHH
86.5 | – | FcγRIIa-m11-Del5 (receptor) MGQAAAPPKAVLKLEPPWTNVLQEDSVTLTCQGADSVLWFHNGNLIPTQTQLTYRFKATSNDSGEYTCQTGQTSLSDPVHLTVLSEWLVLQPPRLEFQEGETIMLRCHSWKDKPLVKVTFFQNGKSQKFSHLDPTFSIPQANHSHSGDYHCTGNIGYTSFSSKPVTITVQGGHHHHHH
72.4 | – | FcγRIIa-m11-Del3 (receptor) MGQAAAPPKAVLKLEPPWTNVLQEDSVTLTCQGARSDSVLWFHNGNLIPTQTQLTYRFKATSNDSGEYTCQTGQTSLSDPVHLTVLSEWLVLQPPRLEFQEGETIMLRCHSWKDKPLVKVTFFQNGKSQKFSHLDPTFSIPQANHSHSGDYHCTGNIGYTSFSSKPVTITVQGGHHHHHH
89.8 | – | FcγRIIa-m11-Del1 (receptor) MGQAAAPPKAVLKLEPPWTNVLQEDSVTLTCQGARPESDSVLWFHNGNLIPTQTQLTYRFKATSNDSGEYTCQTGQTSLSDPVHLTVLSEWLVLQPPRLEFQEGETIMLRCHSWKDKPLVKVTFFQNGKSQKFSHLDPTFSIPQANHSHSGDYHCTGNIGYTSFSSKPVTITVQGGHHHHHH
76.7 | – | FcγRIIa-m11-Del4 (receptor) MGQAAAPPKAVLKLEPPWTNVLQEDSVTLTCQGASDSVLWFHNGNLIPTQTQLTYRFKATSNDSGEYTCQTGQTSLSDPVHLTVLSEWLVLQPPRLEFQEGETIMLRCHSWKDKPLVKVTFFQNGKSQKFSHLDPTFSIPQANHSHSGDYHCTGNIGYTSFSSKPVTITVQGGHHHHHH
83.6 | 95.3 | FcγRIIa-m11 (receptor) MGQAAAPPKAVLKLEPPWTNVLQEDSVTLTCQGARSPESDSVLWFHNGNLIPTQTQLTYRFKATSNDSGEYTCQTGQTSLSDPVHLTVLSEWLVLQPPRLEFQEGETIMLRCHSWKDKPLVKVTFFQNGKSQKFSHLDPTFSIPQANHSHSGDYHCTGNIGYTSFSSKPVTITVQGGHHHHHH
– | 72.9 | FcγRIIa-m10C (receptor) MGQAAAPPKAVLKLEPPWINVLQEDSVTLTCQGARSPESDSVLWFHNGNLIPTQTQLTYRFKATSNDSGEYTCQTGQTSLSDPVHLTVLSEWLVLQPPRLEFQEGETIMLRCHSWKDKPLVKVTFFQNGKSQKFSHLDPTFSIPQANHSHSGDYHCTGNIGYTSFSSKPVTITVQGGHHHHHH
– | 77.3 | FcγRIIa-m10A (receptor) MGQAAAPPKAVLKLEPPWTNVLQEDSVTLTCQGARSPESDSVLWFHNGNLIPTQTQPTYRFKATSNDSGEYTCQTGQTSLSDPVHLTVLSEWLVLQPPRLEFQEGETIMLRCHSWKDKPLVKVTFFQNGKSQKFSHLDPTFSIPQANHSHSGDYHCTGNIGYTSFSSKPVTITVQGGHHHHHH
– | 46.9 | FcγRIIa-m10B (receptor) MGQAAAPPKAVLKLEPPWTNVLQEDSVTLTCQGARSPESDSVQWFHNGNLIPTQTQLTYRFKATSNDSGEYTCQTGQTSLSDPVHLTVLSEWLVLQPPRLEFQEGETIMLRCHSWKDKPLVKVTFFQNGKSQKFSHLDPTFSIPQANHSHSGDYHCTGNIGYTSFSSKPVTITVQGGHHHHHH
81.3 | – | FcγRIIa-m11-Del2 (receptor) MGQAAAPPKAVLKLEPPWTNVLQEDSVTLTCQGARPSDSVLWFHNGNLIPTQTQLTYRFKATSNDSGEYTCQTGQTSLSDPVHLTVLSEWLVLQPPRLEFQEGETIMLRCHSWKDKPLVKVTFFQNGKSQKFSHLDPTFSIPQANHSHSGDYHCTGNIGYTSFSSKPVTITVQGGHHHHHH
25.4 | – | FcγRIIa-m11-Del6 (receptor) MGQAAAPPKAVLKLEPPWTNVLQEDSVTLTCQGDSVLWFHNGNLIPTQTQLTYRFKATSNDSGEYTCQTGQTSLSDPVHLTVLSEWLVLQPPRLEFQEGETIMLRCHSWKDKPLVKVTFFQNGKSQKFSHLDPTFSIPQANHSHSGDYHCTGNIGYTSFSSKPVTITVQGGHHHHHH
